Data taken from patent EP4582447A1 (Quaerite Biopharm Research (Beijing) Co., Ltd., dated 2025).
Residue numbers refer to the chain shown, from its start. Read-outs that look alike come from different tables or passages of the source.

Experiments:
Human VEGFA165 [1] = biological target: T1, Human VEGFA165 (human, UniProt P15692-4 27-191); experiment: cell-based or functional assay
Human VEGFA165 [2] = biological target: T1, Human VEGFA165; experiment: SPR Biacore 8K, VEGFA165 amine-coupled on CM5, nanobody as analyte, 1:1 model
Human VEGFA165 [3] = biological target: T1, Human VEGFA165; experiment: competition ELISA on coated VEGFA, competitor VEGFR2-ECD-Fc 2 nM
Human VEGFA165 [4] = biological target: T1, Human VEGFA165; experiment: ELISA, VEGFA coated 0.3 µg/mL, anti-His detection
Human VEGFA165 [5] = biological target: T1, Human VEGFA165; experiment: ELISA, VEGFA coated 0.3 µg/mL, anti-His detection; remark: listed apart in the source
Human VEGFA165 [6] = biological target: T1, Human VEGFA165; experiment: SPR Biacore 8K, VEGFA165 amine-coupled on CM5, nanobody as analyte, 1:1 model; remark: listed apart in the source
Human VEGFA165 [7] = biological target: T1, Human VEGFA165; experiment: SPR, VEGFA165 on CM5
Human VEGFA165 [8] = biological target: T1, Human VEGFA165; experiment: competition ELISA on coated VEGFA, competitor VEGFR2-ECD-Fc 1 nM
[9] = biological target: 3% milk powder (negative control); experiment: phage ELISA, 3% milk powder coated (negative control), anti-M13(HRP)
Human VEGFA165 [10] = biological target: T1, Human VEGFA165; experiment: phage ELISA, VEGFA coated 0.5 µg/mL, anti-M13(HRP)
Human VEGFA165 [11] = biological target: T1, Human VEGFA165; experiment: competition ELISA on coated VEGFA, competitor VEGFR2-ECD-Fc 1 nM; remark: listed apart in the source

T1 sequence (P15692 other isoform, or with tags, fused parts or gaps limits assumed): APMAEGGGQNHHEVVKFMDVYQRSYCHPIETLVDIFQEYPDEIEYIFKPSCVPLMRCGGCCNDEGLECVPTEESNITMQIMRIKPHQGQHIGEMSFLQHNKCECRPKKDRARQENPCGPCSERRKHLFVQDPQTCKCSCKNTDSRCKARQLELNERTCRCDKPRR

negative control antibody (nanobody binding to an irrelevant antigen) (VHH)
Maximum inhibition rate (%) of HUVEC proliferation (Human VEGFA165 [1]): 0%

B1: V1-2m (VHH)
VHH: EVQLVESGGGLVQPGGSLRLSCAASGRTFSSYTMGWFRQAPGKEREFVVAISKGGYKYDSVSLEARFTISRDNSKNTVYLQMNSLRPEDTAVYYCAATRAYGSSRLRLADTYEYWGQGTLVTVSS
notes: Humanized V1
Kd (Human VEGFA165 [2]): 0.243 nM
koff (Human VEGFA165 [2]): 8.24e-05 s⁻¹
kon (Human VEGFA165 [2]): 339000 M⁻¹ s⁻¹

B2: V1-4m (VHH)
VHH: B1 VHH with S74A, A97S
notes: Humanized V1
IC50 (Human VEGFA165 [3]): 26.1 nM
Maximum inhibition rate (%) (Human VEGFA165 [3]): 93%

B3: V1-SA3 (VHH)
VHH: B1 VHH with S74A, P87A
notes: Humanized V1
IC50 (Human VEGFA165 [3]): 26.7 nM
Maximum inhibition rate (%) (Human VEGFA165 [3]): 93.5%

B4: V1-com-74-78-97 (VHH)
VHH: B1 VHH with S74A, P87A, A97S
notes: Humanized V1
IC50 (Human VEGFA165 [3]): 20 nM
Maximum inhibition rate (%) (Human VEGFA165 [3]): 94.4%

B5: V1-com-78 (VHH)
VHH: B1 VHH with P87A
notes: Humanized V1
Kd (Human VEGFA165 [2]): 0.257 nM
koff (Human VEGFA165 [2]): 8.91e-05 s⁻¹
kon (Human VEGFA165 [2]): 347000 M⁻¹ s⁻¹
IC50 (Human VEGFA165 [3]): 28.5 nM
Maximum inhibition rate (%) (Human VEGFA165 [3]): 93.7%

B6: V1-com-87 (VHH)
VHH: B1 VHH with V78L
notes: Humanized V1
Kd (Human VEGFA165 [2]): 0.252 nM
koff (Human VEGFA165 [2]): 9.08e-05 s⁻¹
kon (Human VEGFA165 [2]): 360000 M⁻¹ s⁻¹

B7: V13-2m (VHH)
VHH: B1 VHH with S30T, S60A, A97G
notes: Humanized V13 (CDR graft on humanized V1 frameworks)
IC50 (Human VEGFA165 [3]): 40.1 nM
Maximum inhibition rate (%) (Human VEGFA165 [3]): 88.9%

B8: V13-4m (VHH)
VHH: B1 VHH with S30T, S60A, S74A, A97G
notes: Humanized V13
IC50 (Human VEGFA165 [3]): 26.8 nM
Maximum inhibition rate (%) (Human VEGFA165 [3]): 89.2%

B9: V15-2m (VHH)
VHH: B1 VHH with S30A, A97G, D110E
notes: Humanized V15
EC50 (Human VEGFA165 [4]): 2.04 nM
IC50 (Human VEGFA165 [3]): 31.7 nM
Maximum inhibition rate (%) (Human VEGFA165 [3]): 84.8%

B10: V15-4m (VHH)
VHH: B1 VHH with S30A, S74A, A97G, D110E
notes: Humanized V15
EC50 (Human VEGFA165 [4]): 1.42 nM
IC50 (Human VEGFA165 [3]): 26 nM
Maximum inhibition rate (%) (Human VEGFA165 [3]): 87.2%

B11: V29 (VHH)
VHH: QLQLVESGGGSVQPGGSLRLSCEVSGRTFSSYTMGWFRQAPGKEREFVVAISKGGYKYDSVSLEARFTISKDNTKNTVYLQMNSLKPEDTAVYYCAGTRAYGSSRLRLANTYEYWGQGTQVTVSS
notes: Purified with C-terminal GGGGS-6×His
EC50 (Human VEGFA165 [5]): 0.77 nM
Kd (Human VEGFA165 [6]): 0.436 nM
koff (Human VEGFA165 [6]): 0.000127 s⁻¹
kon (Human VEGFA165 [6]): 291000 M⁻¹ s⁻¹
fold difference of KD from the positive control BI-VEGF ab (Human VEGFA165 [7]): < 3 fold
IC50 (Human VEGFA165 [8]): 2.98 nM
Maximum inhibition rate (%) (Human VEGFA165 [8]): 95.3%
OD450 [9]: 0.0553 OD450
OD450 (Human VEGFA165 [10]): 2.69 OD450

B12: V30 (VHH)
VHH: B11 VHH with E44G, S60A, G97A, N110K
notes: Purified with C-terminal GGGGS-6×His; also called candidate antibody V30
EC50 (Human VEGFA165 [5]): 0.6 nM
Kd (Human VEGFA165 [6]): 0.214 nM
koff (Human VEGFA165 [6]): 0.000136 s⁻¹
kon (Human VEGFA165 [6]): 635000 M⁻¹ s⁻¹
fold difference of KD from the positive control BI-VEGF ab (Human VEGFA165 [7]): < 3 fold
IC50 (Human VEGFA165 [8]): 3.54 nM
Maximum inhibition rate (%) (Human VEGFA165 [8]): 96.5%
OD450 [9]: 0.0436 OD450
OD450 (Human VEGFA165 [10]): 2.68 OD450
IC50 (Human VEGFA165 [11]): 5.72 nM
Maximum inhibition rate (%) (Human VEGFA165 [11]): 94.8%
IC50 (pM), inhibition of VEGFA-stimulated HUVEC proliferation (CCK-8) (Human VEGFA165 [1]): 1270 pM
Maximum inhibition rate (%) of HUVEC proliferation (Human VEGFA165 [1]): 87.4%

B13: V30-2H-2m (VHH)
VHH: B1 VHH with S60A, D110K
notes: Humanized V30
IC50 (Human VEGFA165 [11]): 5.64 nM
Maximum inhibition rate (%) (Human VEGFA165 [11]): 94.7%

B14: V30-2H-78 (VHH)
VHH: B1 VHH with S60A, P87A, D110K
notes: Humanized V30
IC50 (Human VEGFA165 [11]): 4.97 nM
Maximum inhibition rate (%) (Human VEGFA165 [11]): 95.5%

B15: V30-2H-87 (VHH)
VHH: B1 VHH with S60A, V78L, D110K
notes: Humanized V30
IC50 (Human VEGFA165 [11]): 5.81 nM
Maximum inhibition rate (%) (Human VEGFA165 [11]): 94.2%

B16: V30-3H-2m (VHH)
VHH: B1 VHH with E44G, S60A, D110K
notes: Humanized V30
EC50 (Human VEGFA165 [4]): 1.38 nM
